{"source": "the nanobody polyreactivity screen of Harvey et al. (2022)", "data": [{"test": "yeast display, Sf9 membrane polyspecificity reagent, FACS + sequencing; frameworks hold sequencing errors", "outline": "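Nanobodies came from a synthetic yeast display library in Saccharomyces cerevisiae BJ5465, induced with galactose for 36–48 hours and stained for 1 hour at 4 °C with 10% biotinylated, detergent-solubilized Sf9 membrane reagent. Cells were enriched on streptavidin microbeads and then FACS-sorted, with low and high (top ~1%) gates set on anti-HA fluorescence for expression and streptavidin fluorescence for reagent binding. Each polyreactivity label reflects the gate a clone came from. Genes were amplified by colony PCR, sequenced by MiSeq 2 × 250 and filtered by CDR length.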", "values": [{"sequence": "QVQLVESGGGLVQAGGSLRLSCAASGFIFTNVMGWYRQAPGKERELVASISSGGRTYYADSVKGRFTISRDNAKNTVYLQLNSLKPEDTAVYYCAKKKLLSVPARGYDYVYYWGQGTQVTVSS", "polyreactivity (PSR sort gate)": "high polyreactivity"}, {"sequence": "QVQLVESGGGLVQAGGSLRLSCAASGFIFTRNVMGWYRQAPGKERELVAGITYTSGSTYYADSVKGRFTISRDNAKNTVYLQMNSLKPEDTAVYYCAAEITRHYVFGDDYWGQGTQVTVSS", "polyreactivity (PSR sort gate)": "low polyreactivity"}, {"sequence": "QVQLVESGGGLVQAGGSLRLSCAASGFIFTRYAMGWYRQAPGKERELVAAISASGGSTYYADSVKGRFTISRDNAKNTVYLQMKSLKPEETAVYYCAAVPYRYTYDYWGQGTQLTVSS", "polyreactivity (PSR sort gate)": "high polyreactivity"}, {"sequence": "QVQLVESGGGLVQAGGSLRLSCAASGFIFTSYAMGWYRQAPGKERELVAAITDGGSTNYADSVKGRFTISRDNAKNTVYLQMNSLKPEDTAVYYCAADGFKTVLPEYDYWGQGTQVTVSS", "polyreactivity (PSR sort gate)": "low polyreactivity"}, {"sequence": "QVQLVESGGGLVQAGGSLRLSCAASGFIFTYNAMGWYRQAPGKETEFVASISRSGGRTYYADSVKGRFTISRDNAKNTVYLQMNSLKPEDTAVYYCAARNAYVYGMDYWGHGTQVTVSS", "polyreactivity (PSR sort gate)": "low polyreactivity"}, {"sequence": "QVQLVESGGGLVQAGGSLRLSCAASGFIFTYYAMGWYRAAPGKERELVAAIRGSGGRTYYADSVKGRFTISRDNAKNTVYLQMNSLKPEDTAVYYCTADPTWFGYVYYQYDYWGQGTQVTVSS", "polyreactivity (PSR sort gate)": "low polyreactivity"}, {"sequence": "QVQLVESGGGLVQAGGSLRLSCAASGFIFTYYAMGWYRQAPGKERELVAAISRIGGSTYYADSVKGRFTISRDNAKYTVYLQMNSLKPEDTAVYYCARYSWPLNKLAVDYWGQGTQVTVSS", "polyreactivity (PSR sort gate)": "high polyreactivity"}, {"sequence": "QVQLVESGGGLVQAGGSLRLSCAASGFIFTYYTMGWYRPAPGKERELVAAISRTGSTNYADSVKGRFTISRDNAKNTVYLQMNSLKPEDTAVYFCNARYRGWLTLDGGYGYWGQGTQVTVSS", "polyreactivity (PSR sort gate)": "low polyreactivity"}, {"sequence": "QVQLVESGGGLVQAGGSLRLSCAASGFIFTYYVMGWYRQAPGKERELVATISISDGTTYADSVKGRFTISRDNAKNTVYLQMNSLKPEDTAVYYCAKYFTTYKYDYWGQGTQVTVSS", "polyreactivity (PSR sort gate)": "low polyreactivity"}, {"sequence": "QVQLVESGGGLVQAGGSLRLSCAASGFIFVDNAMGWYRQAPGKERELVAAITYRGGSTYYADSVKGRFTISRDNAKNTVYLQMNSLKPEDTAVYYCNADYGDTFEYDYWGQGTQVTVSS", "polyreactivity (PSR sort gate)": "low polyreactivity"}, {"sequence": "QVQLVESGGGLVQAGGSLRLSCAASGFIFVDYDMGWYRQAPGKERELVASINWSGGSTDYADSVKGRFTISRDNAKNTVYLQMNSLKPEDTAVYYCAAEGQDGRFYWGQGTQVTVSS", "polyreactivity (PSR sort gate)": "low polyreactivity"}, {"sequence": "QVQLVESGGGLVQAGGSLRLSCAASGFIFVFYAMGWYRQAPGKERELVAAITWSGGGTYYADSVKGRFTISRDNAKNTVYLQMNSLKPEDTAVYYCNAEEPQYYYVLDKLYDYWGQGTQVTVSS", "polyreactivity (PSR sort gate)": "low polyreactivity"}, {"sequence": "QVQLVESGGGLVQAGGSLRLSCAASGFIFVFYDMGWYRQAPGKERELVAGITRNDGSTYYADSVKGRFKISRDNAKNTVYLLMNSLKPEDTAVYYCAADRVRRNDKLAYDYWGQGTQVTVSS", "polyreactivity (PSR sort gate)": "low polyreactivity"}, {"sequence": "QVQLVESGGGLVQAGGSLRLSCAASGFIFVGNAMGWYRQAPGKERELVAAISRRGSRTFYADSVKGRFTISRDNAKNTVYLQMNSLKPEDTAVYYCATDKWYGYYYWGQGTQVTVSS", "polyreactivity (PSR sort gate)": "low polyreactivity"}, {"sequence": "QVQLVESGGGLVQAGGSLRLSCAASGFIFVGYAMGWYRQAPGKERELVAAISKSGGSTYYADSVKGRFTISRDNAKNTVYLQMNSLKPEDTAVYYCAAAYASRNYRGLDYWGQGIQVTVSS", "polyreactivity (PSR sort gate)": "high polyreactivity"}, {"sequence": "QVQLVESGGGLVQAGGSLRLSCAASGFIFVKYAMGWYRQAPGKERELVAAISSTGGRTYYADSVKGRFTISRDNAKNTVYLQMNSLKPEVTAVYYCATEYGYPYGYWGQCTQVTVSS", "polyreactivity (PSR sort gate)": "high polyreactivity"}, {"sequence": "QVQLVESGGGLVQAGGSLRLSCAASGFIFVLYAMGWDRQAPGKERELVAAINGGSSTNYADSVKGRFTISRDNAKNTVYLQMNSLKPEDTAVYYCAADVIPDGVKKPRMYYWGQGTQVTVSS", "polyreactivity (PSR sort gate)": "low polyreactivity"}]}]}
